Reference: US20130123472A1 (GlaxoSmithKline, published 2013)
Positions count from the first letter of the chain named. One block for each binder: values may come before it. Where no end group is shown, it is not given here.

Assays:
MAGE-A1 = molecular target: T1, MAGE-A1 (human, UniProt P43355 1-309); test: Western blot, lysates of transiently transfected HEK 293 cells
T1 construct: In lysates of transiently transfected HEK 293 cells; construct not described
T1 sequence: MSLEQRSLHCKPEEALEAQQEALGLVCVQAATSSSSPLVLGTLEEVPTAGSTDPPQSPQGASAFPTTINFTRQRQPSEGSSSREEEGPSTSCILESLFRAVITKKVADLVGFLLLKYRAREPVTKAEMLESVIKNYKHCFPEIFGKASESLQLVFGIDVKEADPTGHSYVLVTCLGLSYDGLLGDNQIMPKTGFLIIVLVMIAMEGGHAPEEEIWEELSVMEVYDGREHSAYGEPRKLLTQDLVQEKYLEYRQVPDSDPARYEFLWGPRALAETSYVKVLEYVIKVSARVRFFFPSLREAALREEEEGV
Method: (§1) The specificity of mAbs 1B1, 16G7 and 23D2 were tested in Western blot analyses on HEK 293 cells transiently transfected with plasmids encoding MAGE-A1, A2, A3, A4, A6, A8, A9, A10, All and A12. Non-transfected cells were used as a control. Between 25 and 85 μg of lysates of transfected or non-transfected cells were electrophoresed on SDS-PAGE and transferred onto nitrocellulose. Immunodetection was performed by incubation of the blots with each of mAbs 1B1, 16G7 and 23D2. Immunodetection was additionally performed using a mixture of mAbs that together recognized all of the MAGE-A antigens expressed by the transfectants (see Table 6 for mAbs in this mixture).
(§2) Method: mini-gels were prepared with 10% acrylamide in the running gel and 4.5% acrylamide in the stacking gel. Samples were prepared in 40 μl of loading buffer (reducing conditions), the gel was loaded and migrated at 100V in the stacking gel and 200 V in the running gel. Proteins were transferred onto nitrocellulose at 100 mA during one hour at 4° C., and the membrane incubated in TBS-5% skimmed milk, and incubated with antibody diluted in TBS-1% skim milk for one hour at room temperature.

MAGE-A4 = molecular target: T2, MAGE-A4 (human, UniProt P43358 1-317); test: as above
T2 construct: In lysates of transiently transfected HEK 293 cells; construct not described
T2 sequence: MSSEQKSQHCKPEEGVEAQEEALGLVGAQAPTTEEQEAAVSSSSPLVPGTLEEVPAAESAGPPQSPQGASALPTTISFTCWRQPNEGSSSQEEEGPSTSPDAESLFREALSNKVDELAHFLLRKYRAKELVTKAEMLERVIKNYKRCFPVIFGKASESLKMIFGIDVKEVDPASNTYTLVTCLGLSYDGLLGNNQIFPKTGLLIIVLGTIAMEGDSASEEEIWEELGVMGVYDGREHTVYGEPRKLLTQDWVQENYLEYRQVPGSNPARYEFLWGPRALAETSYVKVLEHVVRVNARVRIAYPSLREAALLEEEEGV
Method: as §1, §2

MAGE-A8 = molecular target: T3, MAGE-A8 (human, UniProt P43361 1-318); test: as above
T3 construct: In lysates of transiently transfected HEK 293 cells; construct not described
T3 sequence: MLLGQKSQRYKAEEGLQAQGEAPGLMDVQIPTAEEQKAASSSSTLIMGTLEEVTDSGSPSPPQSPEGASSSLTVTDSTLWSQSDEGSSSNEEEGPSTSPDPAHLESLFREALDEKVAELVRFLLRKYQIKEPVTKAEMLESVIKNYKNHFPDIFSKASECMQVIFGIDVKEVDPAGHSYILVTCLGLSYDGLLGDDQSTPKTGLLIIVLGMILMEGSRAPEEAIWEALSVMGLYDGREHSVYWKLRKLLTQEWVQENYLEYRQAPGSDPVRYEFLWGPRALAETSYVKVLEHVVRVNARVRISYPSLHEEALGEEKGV
Method: as §1, §2

MAGE-A9 = molecular target: T4, MAGE-A9 (human, UniProt P43362 1-315); test: as above
T4 construct: constructs not described
T4 sequence: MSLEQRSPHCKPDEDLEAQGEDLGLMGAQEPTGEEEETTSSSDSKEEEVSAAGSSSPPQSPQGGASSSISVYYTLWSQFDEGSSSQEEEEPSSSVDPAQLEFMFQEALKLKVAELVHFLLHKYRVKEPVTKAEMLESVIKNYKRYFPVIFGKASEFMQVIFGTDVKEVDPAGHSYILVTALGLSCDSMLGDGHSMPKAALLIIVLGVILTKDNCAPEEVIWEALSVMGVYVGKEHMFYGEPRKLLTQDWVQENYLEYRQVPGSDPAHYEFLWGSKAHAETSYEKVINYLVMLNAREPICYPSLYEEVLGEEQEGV
Method: as §1, §2

MAGE-A10 = molecular target: T5, MAGE-A10 (human, UniProt P43363 1-369); test: as above
T5 construct: In lysates of transiently transfected HEK 293 cells; construct not described
Method: as §1, §2

MAGE-A11 = molecular target: T6, MAGE-A11 (human, UniProt P43364 1-429); test: as above
T6 construct: In lysates of transiently transfected HEK 293 cells; construct not described
T6 sequence: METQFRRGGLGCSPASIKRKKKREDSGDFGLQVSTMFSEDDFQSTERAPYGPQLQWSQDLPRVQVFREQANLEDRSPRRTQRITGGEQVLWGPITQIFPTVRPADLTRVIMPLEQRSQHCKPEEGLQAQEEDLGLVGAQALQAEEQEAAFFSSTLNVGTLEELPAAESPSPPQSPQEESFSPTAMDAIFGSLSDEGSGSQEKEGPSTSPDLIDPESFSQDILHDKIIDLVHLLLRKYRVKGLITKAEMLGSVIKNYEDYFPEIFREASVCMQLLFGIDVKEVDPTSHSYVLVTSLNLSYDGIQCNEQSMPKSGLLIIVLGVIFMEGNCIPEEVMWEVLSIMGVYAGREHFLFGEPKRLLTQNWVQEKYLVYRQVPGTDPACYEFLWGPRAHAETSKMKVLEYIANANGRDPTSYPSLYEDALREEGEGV
Method: as §1, §2

MAGE-A6 = molecular target: T7, MAGE-A6 (human, UniProt P43360 1-314); test: as above
T7 construct: In lysates of transiently transfected HEK 293 cells (Western blot); also endogenous MAGE-A6 in K562 lysate; Construct not described
Method: as §1, §2

[1] = molecular target: T8, peptide MA3#1 conjugated to KLH (human, also: conjugated to KLH); test: ELISA, clone culture supernatant on coated antigen, GAM IgG-HRP, OD 405 nm
T8 construct: MAGE-A3 residues 137-147 with added residue(s) at the N-terminus for linkage to the carrier; also called MAGE-A3 peptide #1; peptide #1
T8 peptide: CGSVVGNWQYFF
Method: (§3) Wells of a Nunc MAXISORP™ 96-well were coated with antigen. The antigen was diluted in Tris-buffered saline (TBS) at 0.1 μg/50 μl for purified recombinant MAGE proteins, or at 0.5 μg/50 μl for peptides conjugated to KLH, and distributed at 50 μl per well and dried overnight at 37° C. The wells were washed several times in TBS and 50 μl of TBS-1% casein was added to each well. Wells were incubated for 1 hour at 37° C. and washed again several times in TBS.
(§4) In total, 75 clones from Example 5 that grew easily after transfer into 24-well plates were tested two days later in ELISA for reactivity with the following antigens: recombinant MAGE-A3, recombinant MAGE-A2; recombinant MAGE-A12; peptide MA3 #1 conjugated to KLH; peptide MA3 #2 conjugated to KLH; and peptide MA3#3 conjugated to KLH.
(§5) For each clone, 50 μl of culture medium supernatant was transferred into a well of a 96-well plate containing 0.1 μg/well of one of the recombinant MAGE proteins or 0.5 μg/well of one of the peptides conjugated to KLH. As positive control, 50 μl of 57B hybridoma supernatant was tested on each of the antigens.

[2] = molecular target: T9, peptide MA3#2 conjugated to KLH (human, also: conjugated to KLH); test: as above
T9 construct: MAGE-A3 residues 163-180 with an added N-terminal residue; by an error of synthesis it lacks the Ile of position 177; also called MAGE-A3 peptide #2; peptide #2
T9 peptide: CGIELMEVDPIGHLYFAT
Method: as §3, §4, §5

[3] = molecular target: T10, peptide MA3#3 conjugated to KLH (human, conjugated to keyhole limpet haemocyanin (KLH)); test: as above
T10 construct: MAGE-A3 residues 73-90 with two added residues at the N-terminus for linkage to the carrier; also called MAGE-A3 peptide #3; peptide #3
T10 peptide: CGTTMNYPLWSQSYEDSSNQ
Method: as §3, §4, §5

[4] = molecular target: T11, MAGE-A2 recombinant protein (LVL313) (human, UniProt P43356 1-314); test: as above
T11 construct: Purified full-length recombinant protein in ELISA and Western blot; the same id is used for MAGE-A2 in lysates of transfected HEK 293 cells; also called recMA2
Method: as §3, §4, §5

[5] = molecular target: T12, MAGE-A12 recombinant protein (LVL314) (human, UniProt P43365 1-314); test: as above
T12 construct: Purified full-length recombinant protein in ELISA and Western blot; the same id is used for MAGE-A12 in lysates of transfected HEK 293 cells; also called recMA12
Method: as §3, §4, §5

[6] = molecular target: T13, full-length recombinant MAGE-A3 protein (human, UniProt P43357 1-314); test: ELISA, biotinylated mAb 23D2 on 0.1 µg/well recombinant MAGE-A3, OD 405 nm
T13 construct: Full-length recombinant protein (made in baculovirus or E. coli, GSK); Also used here for endogenous MAGE-A3 in GERL cell lysate and for summary statements on MAGE-A3; also called recMA3; MA3
Method: An ELISA against MAGE-A3 was then performed using dilutions of biotinylated mAb 23D2 ([…], 0.1, 0.15, 0.2, 0.25 and 0.3 μg/50 μl) to determine useful conditions of use of the biotinylated mAb 23D2.

[7] = molecular target: T9, peptide MA3#2 conjugated to KLH; test: ELISA, hybridoma supernatant on 0.5 µg/well peptide-KLH

T11 sequence (P43356 whole entry): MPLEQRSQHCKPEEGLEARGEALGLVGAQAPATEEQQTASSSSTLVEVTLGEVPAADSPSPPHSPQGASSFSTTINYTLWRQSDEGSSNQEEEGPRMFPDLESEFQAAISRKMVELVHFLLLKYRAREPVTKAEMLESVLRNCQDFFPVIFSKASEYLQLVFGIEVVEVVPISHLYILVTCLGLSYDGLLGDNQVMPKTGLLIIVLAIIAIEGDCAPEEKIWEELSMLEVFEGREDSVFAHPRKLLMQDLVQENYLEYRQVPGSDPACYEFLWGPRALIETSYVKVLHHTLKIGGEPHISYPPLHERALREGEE
T7 sequence (P43360 whole entry Y283N): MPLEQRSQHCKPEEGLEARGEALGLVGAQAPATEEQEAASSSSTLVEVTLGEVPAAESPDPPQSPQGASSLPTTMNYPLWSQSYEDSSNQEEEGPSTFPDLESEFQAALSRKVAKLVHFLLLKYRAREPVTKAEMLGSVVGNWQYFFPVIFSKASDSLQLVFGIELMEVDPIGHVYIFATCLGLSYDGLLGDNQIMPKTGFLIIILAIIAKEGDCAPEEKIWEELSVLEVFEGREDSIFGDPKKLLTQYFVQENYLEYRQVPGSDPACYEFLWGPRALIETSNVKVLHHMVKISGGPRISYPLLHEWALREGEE
T5 sequence (P43363 whole entry R166K/V234I): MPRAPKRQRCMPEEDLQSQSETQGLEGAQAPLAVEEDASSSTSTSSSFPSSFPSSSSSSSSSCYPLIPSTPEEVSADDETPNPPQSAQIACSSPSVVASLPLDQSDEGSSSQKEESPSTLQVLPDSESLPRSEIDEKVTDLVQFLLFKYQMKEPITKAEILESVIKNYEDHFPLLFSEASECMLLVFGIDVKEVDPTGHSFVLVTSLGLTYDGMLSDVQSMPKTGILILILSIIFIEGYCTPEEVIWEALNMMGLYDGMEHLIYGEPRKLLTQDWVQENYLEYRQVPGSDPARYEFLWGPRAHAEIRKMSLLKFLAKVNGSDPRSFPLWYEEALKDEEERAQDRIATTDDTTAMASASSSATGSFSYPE
T12 sequence (P43365 whole entry): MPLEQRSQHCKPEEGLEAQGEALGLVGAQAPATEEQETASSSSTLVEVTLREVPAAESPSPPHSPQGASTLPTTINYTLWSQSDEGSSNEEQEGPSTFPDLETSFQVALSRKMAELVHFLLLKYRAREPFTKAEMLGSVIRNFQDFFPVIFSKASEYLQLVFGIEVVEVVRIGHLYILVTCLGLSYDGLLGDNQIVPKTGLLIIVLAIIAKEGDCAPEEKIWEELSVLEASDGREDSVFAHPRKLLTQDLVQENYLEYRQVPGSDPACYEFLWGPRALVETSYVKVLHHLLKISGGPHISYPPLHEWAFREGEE
T13 sequence (P43357 whole entry): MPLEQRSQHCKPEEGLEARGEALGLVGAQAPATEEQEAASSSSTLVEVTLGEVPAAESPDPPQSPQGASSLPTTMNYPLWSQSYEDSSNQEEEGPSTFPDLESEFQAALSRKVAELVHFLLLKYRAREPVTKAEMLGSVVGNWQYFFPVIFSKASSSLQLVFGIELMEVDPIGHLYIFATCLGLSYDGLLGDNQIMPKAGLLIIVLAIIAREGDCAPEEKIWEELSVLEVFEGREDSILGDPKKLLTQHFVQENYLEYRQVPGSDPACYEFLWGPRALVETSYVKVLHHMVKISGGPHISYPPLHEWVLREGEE

- binding result (MAGE-A6): binds
- binding result [1]: no binding
- binding result [2]: no binding
- binding result [3]: binds
- binding result [4]: no binding
- binding result [5]: no binding
B1: mAb 16G7 (antibody, IgG1, V domains shown)
VH: EVMVVESGGGLVKPGGSLKLSCAASGFTFRTNAMSWVRQTPEKRLEWVATITSGGGSTYYPVSVKGRFTISRDNAKNTLYLQMSSLRSEDTAIYYCVRQDYFDYWGQGTFVIVSS
VL: QAVVTQESALTTSPGETVTLTCRSSTGAVTSTNYANWVQEKPDHLFTGLIGGTNNRAPGVPARFSGSLIGDKAALTITGAQTEDEAIYFCALWYSNHWVFGGGTKLTVL
notes: also called clone 16G7; hybridoma 16G7
- binding result (MAGE-A1): no binding (tested: Between 25 and 85 µg of lysates)
- binding result (MAGE-A4): no binding (tested: Between 25 and 85 µg of lysates)
- binding result (MAGE-A8): no binding (tested: Between 25 and 85 µg of lysates)
- binding result (MAGE-A9): no binding (tested: Between 25 and 85 µg of lysates)
- binding result (MAGE-A10): no binding (tested: Between 25 and 85 µg of lysates)
- binding result (MAGE-A11): no binding (tested: Between 25 and 85 µg of lysates)

- binding result (MAGE-A6): binds
- EC50 (read off the curve) [6]: ~0.006 µg/50 µl
- binding result [1]: no binding
- binding result [2]: no binding
- binding result [3]: binds
- binding result [4]: no binding
- binding result [5]: no binding
B2: mAb 23D2 (antibody, IgG2a, V domains shown)
VH: DVKLVESGGGLVKPGGSLKVSCVASGFTFSSYTMSWVRQTPEKRLEWVATITSGGGSSYYPDSVKGRFTISRDNAKNTLYLQITSLKSEDTAMYYCTSGGGVLLRLPLFAYWGQGTTLTVSS
VL: B1 VL with S31A, T32S, L45S, T53I, S95N
modifications: In the FIG. 8 ELISA and the FIG. 9 competition assay the antibody was biotinylated; the sites are not stated and the letters do not carry them.
notes: also called clone 23D2; hybridoma 23D2
- binding result (MAGE-A1): no binding (tested: Between 25 and 85 µg of lysates)
- binding result (MAGE-A4): no binding (tested: Between 25 and 85 µg of lysates)
- binding result (MAGE-A8): no binding (tested: Between 25 and 85 µg of lysates)
- binding result (MAGE-A9): no binding (tested: Between 25 and 85 µg of lysates)
- binding result (MAGE-A10): no binding (tested: Between 25 and 85 µg of lysates)
- binding result (MAGE-A11): no binding (tested: Between 25 and 85 µg of lysates)

- binding result [7]: no binding
- binding result (MAGE-A6): binds
- binding result [1]: no binding
- binding result [3]: binds
- binding result [4]: no binding
- binding result [5]: no binding
B3: mAb 1B1 (antibody, IgG1, V domains shown)
VH: DVQLQESGPGLVKPSQSLSLTCTVTGYSITSDYVWNWIRQFPGNKLEWMGYIGHSGRTSYNPSLKSRISITRDTSKNQFFLQLNSVTSEDTATYYCARGGNNGFAYWGQGTLVTVSA
VL: DIVMTQSPSSLTVTAGEKVTMSCKSSQSLLNSGNQKNYLTWYQQKPGQPPKLLIYWTSTRDSGVPDRFTGSGSGTDFTLTISSVQAEDLAVYYCQNDYSYPPTFGGGTKLEIKR
notes: Tested as hybridoma supernatant; also called clone 1B1; hybridoma 1B1
- binding result (MAGE-A1): no binding (tested: Between 25 and 85 µg of lysates)
- binding result (MAGE-A4): no binding (tested: Between 25 and 85 µg of lysates)
- binding result (MAGE-A8): no binding (tested: Between 25 and 85 µg of lysates)
- binding result (MAGE-A9): no binding (tested: Between 25 and 85 µg of lysates)
- binding result (MAGE-A10): no binding (tested: Between 25 and 85 µg of lysates)
- binding result (MAGE-A11): no binding (tested: Between 25 and 85 µg of lysates)
